Two molecules from publication PMC2795026 can be followed below.

One series addresses T1, MBP-Brh2NT-His (Ustilago maydis, UniProt Q8NJ74 1-551).
T1 sequence: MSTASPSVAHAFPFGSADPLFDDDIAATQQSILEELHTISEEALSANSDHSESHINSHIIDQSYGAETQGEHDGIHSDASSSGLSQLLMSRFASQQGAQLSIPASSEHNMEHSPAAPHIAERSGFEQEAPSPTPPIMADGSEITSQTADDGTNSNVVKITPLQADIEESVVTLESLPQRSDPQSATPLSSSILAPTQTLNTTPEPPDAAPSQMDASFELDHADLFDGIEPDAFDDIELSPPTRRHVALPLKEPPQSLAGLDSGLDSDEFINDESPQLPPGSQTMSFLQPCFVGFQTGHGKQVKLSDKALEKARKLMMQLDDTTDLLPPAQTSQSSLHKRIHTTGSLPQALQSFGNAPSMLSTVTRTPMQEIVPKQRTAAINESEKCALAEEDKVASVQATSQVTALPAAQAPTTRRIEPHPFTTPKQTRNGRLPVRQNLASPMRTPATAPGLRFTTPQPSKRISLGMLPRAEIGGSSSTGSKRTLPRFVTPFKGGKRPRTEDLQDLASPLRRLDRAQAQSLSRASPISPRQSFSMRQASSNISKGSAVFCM
Kind of series: EMSA. In general terms: A gel shift assay detects complexes by their altered migration in electrophoresis.

Series [1] has as its target T2, MBP-Brh2 (Ustilago maydis, UniProt Q8NJ74 1-1075).
T2 sequence: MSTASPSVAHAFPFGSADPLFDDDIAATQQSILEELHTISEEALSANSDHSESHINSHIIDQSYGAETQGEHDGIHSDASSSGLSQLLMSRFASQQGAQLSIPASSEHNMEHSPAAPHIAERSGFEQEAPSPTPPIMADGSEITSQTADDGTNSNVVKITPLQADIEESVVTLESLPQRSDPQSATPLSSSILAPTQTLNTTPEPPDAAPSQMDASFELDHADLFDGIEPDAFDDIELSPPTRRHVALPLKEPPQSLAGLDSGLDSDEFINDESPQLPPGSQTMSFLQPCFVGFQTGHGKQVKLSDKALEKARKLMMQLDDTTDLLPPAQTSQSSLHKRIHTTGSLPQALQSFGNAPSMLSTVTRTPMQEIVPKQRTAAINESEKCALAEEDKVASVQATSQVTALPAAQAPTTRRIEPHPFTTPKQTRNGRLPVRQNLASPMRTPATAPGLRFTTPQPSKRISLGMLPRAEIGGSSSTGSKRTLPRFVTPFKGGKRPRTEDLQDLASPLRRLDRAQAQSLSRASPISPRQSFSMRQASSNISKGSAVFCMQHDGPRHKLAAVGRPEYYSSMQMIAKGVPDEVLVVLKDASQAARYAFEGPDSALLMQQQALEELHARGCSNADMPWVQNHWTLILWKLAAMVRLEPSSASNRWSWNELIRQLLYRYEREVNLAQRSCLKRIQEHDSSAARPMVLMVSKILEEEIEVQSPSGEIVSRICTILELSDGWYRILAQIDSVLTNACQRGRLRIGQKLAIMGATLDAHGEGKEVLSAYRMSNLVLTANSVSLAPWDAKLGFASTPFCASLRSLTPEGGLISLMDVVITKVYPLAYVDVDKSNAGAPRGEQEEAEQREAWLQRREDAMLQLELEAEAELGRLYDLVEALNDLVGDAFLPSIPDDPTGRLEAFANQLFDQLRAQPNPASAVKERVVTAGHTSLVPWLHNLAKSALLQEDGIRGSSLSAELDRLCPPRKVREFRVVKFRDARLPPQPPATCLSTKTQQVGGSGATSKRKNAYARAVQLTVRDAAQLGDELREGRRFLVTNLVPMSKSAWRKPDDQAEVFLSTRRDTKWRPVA
Kind of series: pull-down.

For series [2], the target named is T3, Brh2 apoprotein (stripped of Dss1) (Ustilago maydis, UniProt Q8NJ74 1-1075).
T3 sequence: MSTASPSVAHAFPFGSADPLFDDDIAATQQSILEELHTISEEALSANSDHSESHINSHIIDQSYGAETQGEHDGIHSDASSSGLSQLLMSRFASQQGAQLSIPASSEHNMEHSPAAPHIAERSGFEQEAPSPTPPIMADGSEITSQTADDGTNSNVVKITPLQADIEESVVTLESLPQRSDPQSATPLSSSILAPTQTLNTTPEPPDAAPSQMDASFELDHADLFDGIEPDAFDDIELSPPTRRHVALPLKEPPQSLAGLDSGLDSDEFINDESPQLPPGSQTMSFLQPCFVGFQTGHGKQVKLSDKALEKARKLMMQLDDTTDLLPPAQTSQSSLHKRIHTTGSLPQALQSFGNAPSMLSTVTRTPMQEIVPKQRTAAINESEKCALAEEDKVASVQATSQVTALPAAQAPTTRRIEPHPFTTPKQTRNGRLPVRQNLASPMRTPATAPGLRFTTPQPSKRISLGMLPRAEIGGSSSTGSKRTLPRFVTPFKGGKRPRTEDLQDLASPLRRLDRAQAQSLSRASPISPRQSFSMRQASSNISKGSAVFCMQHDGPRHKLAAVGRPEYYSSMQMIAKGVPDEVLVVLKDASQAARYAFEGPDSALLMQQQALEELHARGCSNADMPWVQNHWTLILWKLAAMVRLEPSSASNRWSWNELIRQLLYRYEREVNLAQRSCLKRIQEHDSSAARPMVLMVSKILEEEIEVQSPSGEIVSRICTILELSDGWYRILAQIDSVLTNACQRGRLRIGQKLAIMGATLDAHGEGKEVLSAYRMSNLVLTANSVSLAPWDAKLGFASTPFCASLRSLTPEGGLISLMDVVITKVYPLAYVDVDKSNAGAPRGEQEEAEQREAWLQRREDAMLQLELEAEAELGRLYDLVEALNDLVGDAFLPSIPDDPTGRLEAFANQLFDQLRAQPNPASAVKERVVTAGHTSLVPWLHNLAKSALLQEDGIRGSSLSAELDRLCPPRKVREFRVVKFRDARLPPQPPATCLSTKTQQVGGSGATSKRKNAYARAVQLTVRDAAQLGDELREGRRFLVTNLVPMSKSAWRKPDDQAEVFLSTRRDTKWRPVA
The series is described as follows: EMSA.

Series [3] addresses T2, MBP-Brh2. The series is described as follows: pull-down. The source holds these as a separate data set.

Like-named read-outs stand apart in the source and are kept apart here.

B1: ss60mer (ssDNA)
DNA: GCTGCGCAAGGATAGGTCGAATTTTCTCATTTTCCGCCAGCAGTCCACTTCGATTTAATT
As for B1, the binding result (in the series with MBP-Brh2NT-His; in the series with MBP-Brh2 [1]; in series [2]) was “binds” throughout.

B2: 3'-biotin ss60mer (ssDNA)
DNA: GCTGCGCAAGGATAGGTCGAATTTTCTCATTTTCCGCCAGCAGTCCACTTCGATTTAATT
As for B2, in the series with MBP-Brh2 [3], the binding result is “binds”.
